In the supplement of paper PMC9170038:

Test system: MS2 coat protein
Experiment: apparent KD of MS2 coat protein; designed switch direction (-1 OFF switch, 1 ON switch): -1; higher = weaker reporter binding
Outline: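 Stalled E. coli RNA polymerase transcribed designed RNA switches on Illumina chips, which were then titrated with SNAP-549-labelled MS2 coat protein, doubling from 0.7 or 1.5 nM to 3 µM. Steps lasted from 0.8–1.5 h at the lowest concentration to 10–20 min at the highest. The apparent KD is each design's median over clusters of curve-fitted normalised fluorescence.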

[1] = input ligand: microRNA oligo, concentration not stated
[2] = Eterna round: R95, input ligand: FMN 200 uM
[3] = Eterna round: R95, input ligand: microRNA oligo, concentration not stated
[4] = Eterna round: R95, input ligand: none

Sequence | apparent KD of MS2 coat protein [1] [nM] | apparent KD of MS2 coat protein (input ligand: FMN 200 uM) [nM] | apparent KD of MS2 coat protein (input ligand: none) [nM] | apparent KD of MS2 coat protein [2] [nM] | apparent KD of MS2 coat protein [3] [nM] | apparent KD of MS2 coat protein [4] [nM]
AAUUAUUAUUGAGGAUAUCGUAUUGAAACAAUACGAGAAGGCGGUAUAAACAUGAGGAUCACCCAUGUGAGCCUGAUGCUUAUG [Ex NG1 #99] (Eterna round: R96, puzzle: Exclusion NG 1) | 27.5 | – | – | – | – | –
AAUUCCGUAGGAUAUGGGAACCGGGACAUGAGGAUCACCCAUGUGAAGGAUGUCCCAACACCAGAAGGACGCAGCA [EX5 A.14] (Eterna round: R97, puzzle: Exclusion 5) | – | 47 | 25.9 | – | – | –
AAUUUGCAAGCGAGAUCCCACAUGAGGAUCACCCAUGUGCUCGUCUUAUAAGGUACUGUGACAAUAGUCACGGUACC [Mat - Sensor, turn-off var - Eli Mod - D94] (Eterna round: R97, puzzle: Sensor, turn-off variant 1) | – | 16.7 | 20.8 | – | – | –
AAUUUUGGAGGAUAUACAUCCCAGGAUCCAGUAAUUAAGUUACAUGAGGAUCACCCAUGUAGAAGGUCAAGAGU [Eternabot (L1) Solution 75] (Eterna round: R97, puzzle: Exclusion 2) | – | 53.3 | 44.4 | – | – | –
ACAACAAGCUUUUUGUUCGUAGAACAUGAUGCUCUAGUCACAUGAGGAUCACCCAUGUCAACUAGAUAGAUAGUUGA [JR_SV3TOV2_Sub062] (puzzle: Sensor v3, turn-off variant 2) | – | – | – | 43 | 95.7 | 44.1
ACAAGCGAAAGGCUCGUCUUAUUUUUGUAGAGGUCCUAAACAUGAGGAUCACCCAUGUAGUGGCGAUGGUGGAGGUA [JR_SV3TOV2_Sub068] (puzzle: Sensor v3, turn-off variant 2) | – | – | – | 91.2 | 134 | 103
ACAAGCUCUGUGGGUGGUGACAUGAGGAUCACCCAUGUUUUGCUCGUCUUGUGGGCCCGGGCCCGCGGCCCGGGCCC [-41.4, -70.3, A 12%] (Eterna round: R97, puzzle: Sensor, turn-off variant 1) | – | 516 | 978 | – | – | –
ACAAGCUUAAUCAGUAUGAACAUGAGGAUCACCCAUGUAAAAGGGAAUACUAUUGGGUUUUUUAUAGCUCGUCUUAU [JR_STOV1_Sub018] (Eterna round: R97, puzzle: Sensor, turn-off variant 1) | – | 17.8 | 21.7 | – | – | –
ACAAGCUUAGGUAAUCAUAACAUGAGGAUCACCCAUGUUCGUCUUAUAAAAAUAAAAAUAAAAAACAAAAAAUAAAA [Sensor V2: 65] (Eterna round: R96, puzzle: Sensor v2, turn-off variant) | 70.6 | 33.3 | 33.8 | – | – | –
ACAAGCUUGUAAUGAUAGAACAUGAGGAUCACCCAUGUAAAUGGAAGAACCAAUUGGAUAAGAUAAACUCGUCUUAU [JR_STOV1_Sub003] (Eterna round: R97, puzzle: Sensor, turn-off variant 1) | – | 114 | 127 | – | – | –
ACAAGCUUUUAGAUUUUCAACAUGAGGAUCACCCAUGUUCGUCUUAGGCUAGUGCGAGUGCGGUGUACUCGUAUUAG [JL TOV1 3.84 sellena mod] (Eterna round: R97, puzzle: Sensor, turn-off variant 1) | – | 18.2 | 16.4 | – | – | –
ACAAGCUUUUUGCAAUUUAGUUUUGUUGCUUCGUAGGUAACAUGAGGAUCACCCAUGUAAGAGUGAUGUCGUCUUAU [JR_SV3TOV2_Sub084] (puzzle: Sensor v3, turn-off variant 2) | – | – | – | 520 | 141 | 609
ACAAGCUUUUUGCAUCAAGCAUUAAAGUCUGUGAUCGUAACAUGAGGAUCACCCAUGUAAGUUUUAUGACGUCUUAU [JR_SV3TOV2_Sub096] (puzzle: Sensor v3, turn-off variant 2) | – | – | – | 24.8 | 39.8 | 25.3
ACAAGCUUUUUGCAUCAAGCAUUAAAGUCUGUGAUCGUAACAUGAGGAUCACCCAUGUAAGUUUUAUGUCGUCUUAU [JR_SV3TOV2_Sub097] (puzzle: Sensor v3, turn-off variant 2) | – | – | – | 39.7 | 48.3 | 41.1
ACAAGCUUUUUGCUCGGGUACAUGAGGAUCACCCAUGUUUGGGUUUAUUGAGGUUGUGUUGUCGUGCGCUGCAGGUU [JR_SV3TOV1_Sub076] (puzzle: Sensor v3, turn-off variant 1) | – | – | – | 165 | 416 | 232
ACAAGCUUUUUGUUCGUCUUAUAAUAUUCAAUAAGGAUAACAUGAGGAUCACCCAUGUAACAAAGACGGACUCAUGU [Sesor Array 15 - Jieux - Sensor v3, turn-off variant 2] (puzzle: Sensor v3, turn-off variant 2) | – | – | – | 17.2 | 133 | 13
ACACCGCAAGGAUAUACUUGCGGUGGUGUUCGAAGCUUUCUACUUGAGGAUCACCCAAGUAGAAGGUGCGGUGU [jl-ex2.4.73 ViennaUCT mod] (Eterna round: R97, puzzle: Exclusion 2) | – | 12.8 | 12.3 | – | – | –
ACACUUGAACAUGAGGAUCACCCAUGUGUUUUUCUGGUUCGGCAGGAUAUCGUCUAACGCCAGGGCGAGAAGGGCCAAUAAAAG [Inlale] (Eterna round: R96, puzzle: Exclusion NG 3) | 29.4 | 26 | 37 | – | – | –
ACAGAGCAAGGAUAUGCCGGGCGUGACAUGAGGAUCACCCAUGUGAUGCCGGUACGUUUAGCAGAAGGUGCAGGCA [EX5 C.2] (Eterna round: R97, puzzle: Exclusion 5) | – | 19 | 14.8 | – | – | –
ACAGUACUGCAAGGAUAUCGUUCUAGUUUAUUACGAGAAGGUGCUUUAGUUAUUUCUUUGUGUUGACAUGAGGAUCACCCAUGU [JR_ExcNG1_Sub055] (Eterna round: R96, puzzle: Exclusion NG 1) | 17.9 | 18.9 | 26.4 | – | – | –
ACAGUUCUGCAAGGAUAUCGUCCUAGUUUGUUUCGAGAAGGUGCUUUUGUUUUUUCCUUUUGUUUACAUGAGGAUCACCCAUGU [JR_ExcNG1_Sub051] (Eterna round: R96, puzzle: Exclusion NG 1) | 16.6 | 15.6 | 18.9 | – | – | –
ACAUCCUUAGUAAGGAUAUCGUCCGCCGAGGCGGGCGAGAAGGUACAUGAGGAUCACCCAUGUAUGCAGCAGAU [Eternabot (L2) Solution 59] (Eterna round: R97, puzzle: Brourd's mod of Exclusion 4) | – | 19.1 | 14 | – | – | –
ACAUGAGGAUCACCCAUGUAAACAUAAUGGCUCAUGUAGAGUCAGGAUAUGCGUGGCGAACACGCGCAGAAGGGACAAGACUGG [Deportation 24 - Jieux - Exclusion NG 3] (Eterna round: R96, puzzle: Exclusion NG 3) | 21 | 32.4 | 31 | – | – | –
ACAUGAGGAUCACCCAUGUAAUGAAGGGUACUAUACUAAACGUAGGAUAUCGAUGUAAGAUUGUACGAGAAGGACGAUUGCCUU [JR_ExcNG3_Sub051] (Eterna round: R96, puzzle: Exclusion NG 3) | 29.3 | – | – | – | – | –
ACAUGAGGAUCACCCAUGUCAGGCGGGUCCACUCCGGCUGUUGAGGAUAUAGCCCGGUAUCCGCGCUAGAAGGUGAGGGCCGGC [Aenatbe mod 25] (Eterna round: R96, puzzle: Exclusion NG 3) | 18.4 | 23.1 | 24.1 | – | – | –
ACAUGAGGAUCACCCAUGUCAGGUGGGUCCUCUCCGGCUGUUGAGGAUAUAGUCCGGUAUCCGCGCUAGAAGGUGAGGGCUGGC [Aenatbe mod 16] (Eterna round: R96, puzzle: Exclusion NG 3) | 23.8 | 42.8 | 38.4 | – | – | –
ACAUGAGGAUCACCCAUGUCAGGUUGGUCCUCUCCGGCUGUUGAGGAUAUAGUCCGGUAUCCGCGCUAGAAGGUGAGGGCUGGC [Aenatbe mod 15] (Eterna round: R96, puzzle: Exclusion NG 3) | 17.2 | 21.4 | 21.3 | – | – | –
ACAUGAGGAUCACCCAUGUCCGGCUGGUCCGUCUCGGCUGUCGAGGAUAUAGCACGGUAUCCGCGCUAGAAGGCGGGAGCCGGA [Aenatbe mod 85] (Eterna round: R96, puzzle: Exclusion NG 3) | 26 | 72.4 | 39.6 | – | – | –
